Results from patent US20030021776, “Regulation of angiogenesis with zinc finger proteins” (Sangamo BioSciences, Inc., published 2003).

What was measured:
VOP 35A-10 (VZ+892) [1] = molecular target: VOP 35A-10 (VZ+892) (synthetic); experiment: EMSA; Table 6 gives 0.24 nM for same helices (VZ+892); conditions: tags: MBP fusion (pMal-c2), SP1 backbone
HUM 19A = molecular target: T1, HUM 19A (synthetic); experiment: EMSA; conditions: tags: MBP fusion (pMal-c2), SP1 backbone
T1 chain: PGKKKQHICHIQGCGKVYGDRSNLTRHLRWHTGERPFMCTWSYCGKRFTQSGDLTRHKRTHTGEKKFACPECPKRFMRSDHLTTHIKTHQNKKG

[2] = molecular target: VOP 30A-4 (VZ+42/+530, mVZ+509) (synthetic); experiment: EMSA; conditions: tags: MBP fusion (pMal-c2), SP1 backbone
VOP 29A-3 = molecular target: T2, VOP 29A-3 (synthetic); experiment: EMSA; conditions: tags: MBP fusion (pMal-c2), SP1 backbone
T2 chain: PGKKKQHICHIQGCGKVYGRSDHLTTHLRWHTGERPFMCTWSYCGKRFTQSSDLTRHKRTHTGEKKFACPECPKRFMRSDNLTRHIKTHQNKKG

VEGF 1B = VEGF 1B (synthetic, UniProt P08047); experiment: EMSA; conditions: tags: MBP fusion (pMal-c2), SP1 backbone
[3] = molecular target: T3, VOP 32B-7 (VZ+434b, mVZ+426) (synthetic); experiment: EMSA; conditions: tags: MBP fusion (pMal-c2), SP1 backbone
T3 chain: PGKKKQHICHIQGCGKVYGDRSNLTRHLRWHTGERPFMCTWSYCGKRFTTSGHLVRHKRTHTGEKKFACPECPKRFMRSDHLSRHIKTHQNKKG

VOP 32A-6 (VZ+434a) = molecular target: T4, VOP 32A-6 (VZ+434a) (synthetic); experiment: EMSA; conditions: tags: MBP fusion (pMal-c2), SP1 backbone
T4 chain: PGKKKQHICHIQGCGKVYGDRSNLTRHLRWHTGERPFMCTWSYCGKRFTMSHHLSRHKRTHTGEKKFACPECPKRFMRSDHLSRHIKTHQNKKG

[4] = molecular target: T5, VOP 32B-VP16 (VZ+434b-VP16) (synthetic); experiment: cell_activity; endogenous VEGF-A in HEK 293
T5 chain: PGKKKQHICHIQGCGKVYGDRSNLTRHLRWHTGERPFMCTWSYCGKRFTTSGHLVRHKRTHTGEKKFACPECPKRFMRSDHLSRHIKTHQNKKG

HUM 17A (VZ+472) = molecular target: T6, HUM 17A (VZ+472) (synthetic); experiment: EMSA; 17 mM Tris, 170 mM KCl, 1.7 mM MgCl2, Zn; conditions: tags: MBP fusion (pMal-c2), SP1 backbone
T6 chain: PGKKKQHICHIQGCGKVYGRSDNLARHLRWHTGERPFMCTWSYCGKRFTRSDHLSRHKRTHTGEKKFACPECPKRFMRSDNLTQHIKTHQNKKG
Description: (§1) Binding studies were performed essentially as described (Zhang et al., supra; WO 00/41566; and WO 00/42219) except that the binding reactions contained 10 pM of labeled target site and the buffer composition was as follows: 17 mM Tris, 170 mM KCl, 1.7 mM MgCl2, 3.5 mM DTT, 0.01-0.033 mM ZnCl2, 15% glycerol, 300 μg/ml bovine serum albumin, 0.03% IGEPAL. In addition, ZFP concentrations for these studies were determined directly by measuring the DNA-binding activity of each ZFP preparation using conditions under which binding is essentially stoichiometric (ZFP and target site concentrations of >100 nM).

VG 8A (VZ-475) = VG 8A (VZ-475) (synthetic); experiment: EMSA; 170 mM KCl, 1.7 mM MgCl2, Zn; conditions: tags: MBP fusion (pMal-c2), SP1 backbone
Description: as §1

BVO 13A = molecular target: T7, BVO 13A (synthetic); experiment: EMSA; conditions: tags: MBP fusion (pMal-c2), SP1 backbone
T7 chain: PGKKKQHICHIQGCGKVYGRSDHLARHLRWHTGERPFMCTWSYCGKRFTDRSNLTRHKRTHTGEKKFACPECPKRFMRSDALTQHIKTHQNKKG

MX1E = molecular target: T8, MX1E (synthetic); experiment: EMSA; conditions: tags: MBP fusion (pMal-c2), SP1 backbone
T8 chain: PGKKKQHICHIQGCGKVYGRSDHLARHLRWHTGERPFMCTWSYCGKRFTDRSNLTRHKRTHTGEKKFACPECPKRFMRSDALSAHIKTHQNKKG

VZ-950 = molecular target: T9, VZ-950 (synthetic); experiment: EMSA; 170 mM KCl, 1.7 mM MgCl2, Zn; conditions: tags: MBP fusion (pMal-c2), SP1 backbone
T9 chain: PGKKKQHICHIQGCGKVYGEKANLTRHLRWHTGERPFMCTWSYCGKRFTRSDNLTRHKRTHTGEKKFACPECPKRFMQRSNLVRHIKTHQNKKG
Description: as §1

VEGF 1 (VZ-8) = molecular target: T10, VEGF 1 (VZ-8) (synthetic, UniProt P08047); experiment: EMSA; 170 mM KCl, 1.7 mM MgCl2, Zn; conditions: tags: MBP fusion (pMal-c2), SP1 backbone
T10 chain: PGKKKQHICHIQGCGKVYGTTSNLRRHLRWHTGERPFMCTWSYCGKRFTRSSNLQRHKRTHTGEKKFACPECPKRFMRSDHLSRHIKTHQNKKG
Description: as §1

[5] = molecular target: VOP 30A-4 (VZ+42/+530, mVZ+509) (synthetic); experiment: EMSA; upper bound; 10 mM Tris, 100 mM KCl, 1 mM MgCl2, 0.01 mM ZnCl2; conditions: tags: MBP fusion (pMal-c2), SP1 backbone
Description: (§2) A three-fold dilution series of each protein was tested for binding to its DNA target (SEQ ID NOS:207, 144, 240, and 141, respectively), with the highest concentration in lane 10 and the lowest concentration in lane 2. Lane 1 contains probe alone.
(§3) Binding studies. Binding studies were performed essentially as described (Liu, et al. (2001) J. Biol. Chem. 276: 11,323-11,334), except that the buffer was modified to the following final composition: 10 mM Tris, 100 mM KCl, 1 mM MgCl₂, 10 mM DTT, 0.01 mM ZnCl₂, 10% glycerol, 200 μg/ml bovine serum albumin, 0.02% IGEPAL.
(§4) Genes for our ZFPs were assembled (see experimental procedures) and each protein was expressed and purified essentially as described (Liu et. al., 2001, supra; and Zhang et. al., supra). We then characterized the DNA-binding affinity of each ZFP using a gel shift assay. Procedures for these studies were essentially identical to those described previously (Liu et. al., 2001, supra; and Zhang et. al., supra) except for the use of a modified binding buffer.

MTS 5A = MTS 5A (synthetic, UniProt P08047); experiment: EMSA; conditions: tags: MBP fusion (pMal-c2), SP1 backbone
VOP 35A-10 (VZ+892) [6] = molecular target: VOP 35A-10 (VZ+892) (synthetic); experiment: EMSA; 170 mM KCl, 1.7 mM MgCl2, Zn; conditions: tags: MBP fusion (pMal-c2), SP1 backbone
Description: as §1

SP1 zinc finger domain [7] = molecular target: T11, SP1 zinc finger domain (UniProt P08047 SEQ:1-94); experiment: EMSA; 100 mM KCl, 1 mM MgCl2, Zn
Description: as §3, §4

SP1 zinc finger domain [8] = molecular target: T11, SP1 zinc finger domain; experiment: EMSA; 170 mM KCl, 1.7 mM MgCl2, Zn
Description: as §1

[9] = molecular target: T3, VOP 32B-7 (VZ+434b, mVZ+426); experiment: EMSA; upper bound; 10 mM Tris, 100 mM KCl, 1 mM MgCl2, 0.01 mM ZnCl2; conditions: tags: MBP fusion (pMal-c2), SP1 backbone
Description: as §2, §3, §4

[10] = molecular target: T3, VOP 32B-7 (VZ+434b, mVZ+426); experiment: EMSA; 170 mM KCl, 1.7 mM MgCl2, Zn; conditions: tags: MBP fusion (pMal-c2), SP1 backbone
Description: as §1

VOP 28A-2 = VOP 28A-2 (synthetic); experiment: EMSA; conditions: tags: MBP fusion (pMal-c2), SP1 backbone
USX 3A = USX 3A (synthetic); experiment: EMSA; conditions: tags: MBP fusion (pMal-c2), SP1 backbone
ZEN-7A 1 (VZ-573) = ZEN-7A 1 (VZ-573) (synthetic, UniProt P08047); experiment: EMSA; 170 mM KCl, 1.7 mM MgCl2, Zn; conditions: tags: MBP fusion (pMal-c2), SP1 backbone
Description: as §1

PDF 5A (VZ+590) = molecular target: T12, PDF 5A (VZ+590) (synthetic); experiment: EMSA; 170 mM KCl, 1.7 mM MgCl2, Zn; conditions: tags: MBP fusion (pMal-c2), SP1 backbone
T12 chain: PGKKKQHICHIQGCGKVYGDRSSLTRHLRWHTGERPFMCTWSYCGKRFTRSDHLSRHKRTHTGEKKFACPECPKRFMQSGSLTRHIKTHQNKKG
Description: as §1

VOP 35A-10 (VZ+892) (synthetic), sequence (chain, as listed by the source): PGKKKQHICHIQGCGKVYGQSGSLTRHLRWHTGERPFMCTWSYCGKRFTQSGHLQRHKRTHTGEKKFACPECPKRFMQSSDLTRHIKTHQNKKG
T11 sequence (P08047 620-713): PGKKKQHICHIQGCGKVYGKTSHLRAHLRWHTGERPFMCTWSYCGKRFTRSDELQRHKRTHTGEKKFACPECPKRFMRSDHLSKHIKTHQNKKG
VOP 30A-4 (VZ+42/+530, mVZ+509) (synthetic), sequence (chain, as listed by the source): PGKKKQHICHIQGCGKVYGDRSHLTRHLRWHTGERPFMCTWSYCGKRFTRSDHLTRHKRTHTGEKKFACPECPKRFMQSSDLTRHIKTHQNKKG
MTS 5A, sequence (P08047 other isoform, or with tags, fused parts or gaps): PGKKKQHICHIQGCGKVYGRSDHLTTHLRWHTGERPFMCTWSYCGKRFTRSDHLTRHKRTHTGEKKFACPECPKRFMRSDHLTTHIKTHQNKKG
VEGF 1B, sequence (P08047 other isoform, or with tags, fused parts or gaps): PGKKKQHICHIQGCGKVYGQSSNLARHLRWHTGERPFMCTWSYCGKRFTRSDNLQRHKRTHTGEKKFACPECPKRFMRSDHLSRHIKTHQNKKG
ZEN-7A 1 (VZ-573), sequence (P08047 other isoform, or with tags, fused parts or gaps): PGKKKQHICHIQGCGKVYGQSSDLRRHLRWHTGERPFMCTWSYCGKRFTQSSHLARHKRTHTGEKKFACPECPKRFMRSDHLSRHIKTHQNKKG
VOP 28A-2 (synthetic), sequence (chain, as listed by the source): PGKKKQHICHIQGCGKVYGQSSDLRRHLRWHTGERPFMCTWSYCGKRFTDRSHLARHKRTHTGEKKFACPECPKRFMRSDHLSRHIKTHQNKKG
VG 8A (VZ-475) (synthetic), sequence (chain, as listed by the source): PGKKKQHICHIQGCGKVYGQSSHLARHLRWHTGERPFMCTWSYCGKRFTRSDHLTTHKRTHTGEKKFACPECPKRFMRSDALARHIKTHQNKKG

B1: VOP 35A-10 target (dsDNA)
DNA 1: GCTGGAGCA
DNA 2: TGCTCCAGC
In the case of B1, the Kd (VOP 35A-10 (VZ+892) [1]) is reported as less than 0.02 nM.

B2: HUM 19A target (dsDNA)
DNA 1: TGGGCAGAC
DNA 2: GTCTGCCCA
With B2 the Kd (HUM 19A) was 0.02 nM.

B3: VOP 30A target (dsDNA)
DNA 1: GCTGGGGGC
DNA 2: GCCCCCAGC
B3 was tested, and the Kd [2] was less than 0.02 nM.

B4: VOP 29A-3 target (dsDNA)
DNA 1: GAGGCTTGG
DNA 2: CCAAGCCTC
With B4 the Kd (VOP 29A-3) was less than 0.02 nM.

B5: VEGF 1B target (dsDNA)
DNA 1: GGGGAGGAT
DNA 2: ATCCTCCCC
B5 gave a Kd (VEGF 1B) of 2 nM.

B6: VOP 32A/32B target (dsDNA)
DNA 1: GGGGGTGAC
DNA 2: GTCACCCCC
Binder B6 has a Kd [3] of less than 0.02 nM, a Kd (VOP 32A-6 (VZ+434a)) of less than 0.02 nM and an activity [4] of 8 fold.

B7: VZ+472 target (dsDNA)
DNA 1: AAGGGGGAGG
DNA 2: CCTCCCCCTT
B7 was tested, and the Kd (HUM 17A (VZ+472)) was 0.006 nM.

B8: VZ-475 target (dsDNA)
DNA 1: GTGTGGGGTT
DNA 2: AACCCCACAC
Work on B8 yielded a Kd (VG 8A (VZ-475)) of 0.35 nM.

B9: BVO 13A / MX1E target (dsDNA)
DNA 1: ATGGACGGG
DNA 2: CCCGTCCAT
For B9, the Kd (BVO 13A) was less than 0.02 nM and the Kd (MX1E) was 3.4 nM.

B10: VZ-950 target (dsDNA)
DNA 1: GAAGAGGACC
DNA 2: GGTCCTCTTC
Binder B10 has a Kd (VZ-950) of 0.18 nM.

B11: VZ-8 target (dsDNA)
DNA 1: GGGGAGGATC
DNA 2: GATCCTCCCC
B11 was tested, and the Kd (VEGF 1 (VZ-8)) was 2.83 nM.

B12: mVZ+509 target (dsDNA)
DNA 1: GCTGGGGGCG
DNA 2: CGCCCCCAGC
In the case of B12, the Kd [5] is reported as less than 0.01 nM.

B13: MTS 5A target (dsDNA)
DNA 1: TGGGGGTGG
DNA 2: CCACCCCCA
Work on B13 yielded a Kd (MTS 5A) of 0.07 nM.

B14: VZ+892 target (dsDNA)
DNA 1: GCTGGAGCAC
DNA 2: GTGCTCCAGC
With B14 the Kd (VOP 35A-10 (VZ+892) [6]) was 0.24 nM.

B15: SP1 target (dsDNA)
DNA 1: GGGGCGGGGG
DNA 2: CCCCCGCCCC
In the case of B15, the Kd (SP1 zinc finger domain [7]) is reported as 0.053 nM and the Kd (SP1 zinc finger domain [8]) is reported as 0.25 nM.

B16: VZ+434 / mVZ+426 target (dsDNA)
DNA 1: GGGGGTGACC
DNA 2: GGTCACCCCC
Work on B16 yielded a Kd [9] of less than 0.01 nM and a Kd [10] of less than 0.02 nM.

B17: VOP 28A-2 target (dsDNA)
DNA 1: GGGGGCGCT
DNA 2: AGCGCCCCC
In the case of B17, the Kd (VOP 28A-2) is reported as less than 0.02 nM.

B18: USX 3A target (dsDNA)
DNA 1: GCCGGGGAG
DNA 2: CTCCCCGGC
Work on B18 yielded a Kd (USX 3A) of 0.06 nM.

B19: VZ-573 target (dsDNA)
DNA 1: GGGGGCGCTC
DNA 2: GAGCGCCCCC
With B19 the Kd (ZEN-7A 1 (VZ-573)) was 0.63 nM.

B20: VZ+590 target (dsDNA)
DNA 1: GCAGGGGCCG
DNA 2: CGGCCCCTGC
In the case of B20, the Kd (PDF 5A (VZ+590)) is reported as 0.23 nM.
